Ends that are not written are not given here.
Molecular target: T1, A1PI (Homo sapiens, UniProt P01009)
T1 construct: Human plasma is currently the only approved source of therapeutic AlPI
Experiment: A1PI binding on peptide-resin column, injection of 1 mg A1PI in equilibration buffer
Conditions: for % of Total A1PI Eluted by Fraction (Based on Absorbance at 280 nm), 1M NaCl / % of Total A1PI Eluted by Fraction (Based on Absorbance at 280 nm), 2% Acetic Acid / % of Total A1PI Eluted by Fraction (Based on Absorbance at 280 nm), Flowthrough: 1 mg A1PI; for Percent AlPI Eluted by Fraction, 1M NaCl / Percent AlPI Eluted by Fraction, 2% Acetic Acid / Percent AlPI Eluted by Fraction, Flowthrough: 1 mg AlPI
Summary of the method: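 Percent of total eluted A1PI per fraction (flowthrough, NaCl steps, 2% acetic acid) determined by A280 integration or immunonephelometry. Columns of peptide-derivatized A-Totda-Toyopearl resin (0.1 mmole/g) received 1 mg A1PI at 4 °C or 20 °C, flow 865 or 523 μl/min.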

[1] = peptide density 6 μmol/g, 4° C.
[2] = peptide density 6 μmol/g, 20° C.
[3] = peptide density 17 μmol/g, 4° C.
[4] = peptide density 17 μmol/g, 20° C.
[5] = peptide density 25 μmol/g, 4° C.
[6] = peptide density 25 μmol/g, 20° C.
[7] = peptide density 39 μmol/g, 4° C.
[8] = peptide density 39 μmol/g, 20° C.
[9] = peptide density 54 μmol/g, 4° C.
[10] = peptide density 54 μmol/g, 20° C.
[11] = peptide density 58 μmol/g, 4° C.
[12] = peptide density 58 μmol/g, 20° C.
[13] = peptide density 99 μmol/g, 4° C.
[14] = peptide density 99 μmol/g, 20° C.

T1 sequence (P01009 25-418): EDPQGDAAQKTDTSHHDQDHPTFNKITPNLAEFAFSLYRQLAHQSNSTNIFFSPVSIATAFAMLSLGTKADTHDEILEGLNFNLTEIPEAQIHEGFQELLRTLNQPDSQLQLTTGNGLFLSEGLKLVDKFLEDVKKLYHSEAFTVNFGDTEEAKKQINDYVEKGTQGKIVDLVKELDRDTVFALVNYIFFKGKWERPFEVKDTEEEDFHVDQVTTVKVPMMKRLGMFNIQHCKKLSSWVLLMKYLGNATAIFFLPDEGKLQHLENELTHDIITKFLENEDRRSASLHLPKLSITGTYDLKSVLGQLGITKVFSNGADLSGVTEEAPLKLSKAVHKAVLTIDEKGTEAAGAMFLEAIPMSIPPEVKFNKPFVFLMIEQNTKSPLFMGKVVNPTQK

## VIFLVR
Trp position mutations, 4° C.
  % of Total A1PI Eluted by Fraction (Based on Absorbance at 280 nm), 1M NaCl: 3%
  % of Total A1PI Eluted by Fraction (Based on Absorbance at 280 nm), 2% Acetic Acid: 97%
  % of Total A1PI Eluted by Fraction (Based on Absorbance at 280 nm), Flowthrough: 0%
Trp position mutations, 20° C.
  % of Total A1PI Eluted by Fraction (Based on Absorbance at 280 nm), 1M NaCl: 8%
  % of Total A1PI Eluted by Fraction (Based on Absorbance at 280 nm), 2% Acetic Acid: 92%
  % of Total A1PI Eluted by Fraction (Based on Absorbance at 280 nm), Flowthrough: 0%
VIFLVR point mutations, 4° C.
  % of Total A1PI Eluted by Fraction (Based on Absorbance at 280 nm), 1M NaCl: 3%
  % of Total A1PI Eluted by Fraction (Based on Absorbance at 280 nm), 2% Acetic Acid: 97%
  % of Total A1PI Eluted by Fraction (Based on Absorbance at 280 nm), Flowthrough: 0%
VIFLVR point mutations, 20° C.
  % of Total A1PI Eluted by Fraction (Based on Absorbance at 280 nm), 1M NaCl: 8%
  % of Total A1PI Eluted by Fraction (Based on Absorbance at 280 nm), 2% Acetic Acid: 92%
  % of Total A1PI Eluted by Fraction (Based on Absorbance at 280 nm), Flowthrough: 0%
[1]
  Percent AlPI Eluted by Fraction, 1M NaCl: 21%
  Percent AlPI Eluted by Fraction, 2% Acetic Acid: 0%
  Percent AlPI Eluted by Fraction, Flowthrough: 87%
[2]
  Percent AlPI Eluted by Fraction, 1M NaCl: 13%
  Percent AlPI Eluted by Fraction, 2% Acetic Acid: 0%
  Percent AlPI Eluted by Fraction, Flowthrough: 79%
[3]
  Percent AlPI Eluted by Fraction, 1M NaCl: 10%
  Percent AlPI Eluted by Fraction, 2% Acetic Acid: 2%
  Percent AlPI Eluted by Fraction, Flowthrough: 80%
[4]
  Percent AlPI Eluted by Fraction, 1M NaCl: 18%
  Percent AlPI Eluted by Fraction, 2% Acetic Acid: 22%
  Percent AlPI Eluted by Fraction, Flowthrough: 68%
[5]
  Percent AlPI Eluted by Fraction, 1M NaCl: 1%
  Percent AlPI Eluted by Fraction, 2% Acetic Acid: 43%
  Percent AlPI Eluted by Fraction, Flowthrough: 57%
[6]
  Percent AlPI Eluted by Fraction, 1M NaCl: 0%
  Percent AlPI Eluted by Fraction, 2% Acetic Acid: 72%
  Percent AlPI Eluted by Fraction, Flowthrough: 28%
[7]
  Percent AlPI Eluted by Fraction, 1M NaCl: 4%
  Percent AlPI Eluted by Fraction, 2% Acetic Acid: 96%
  Percent AlPI Eluted by Fraction, Flowthrough: 0%
[8]
  Percent AlPI Eluted by Fraction, 1M NaCl: 0%
  Percent AlPI Eluted by Fraction, 2% Acetic Acid: 100%
  Percent AlPI Eluted by Fraction, Flowthrough: 0%
[9]
  Percent AlPI Eluted by Fraction, 1M NaCl: 0%
  Percent AlPI Eluted by Fraction, 2% Acetic Acid: 100%
  Percent AlPI Eluted by Fraction, Flowthrough: 0%
[10]
  Percent AlPI Eluted by Fraction, 1M NaCl: 0%
  Percent AlPI Eluted by Fraction, 2% Acetic Acid: 100%
  Percent AlPI Eluted by Fraction, Flowthrough: 0%
[11]
  Percent AlPI Eluted by Fraction, 1M NaCl: 4%
  Percent AlPI Eluted by Fraction, 2% Acetic Acid: 96%
  Percent AlPI Eluted by Fraction, Flowthrough: 0%
[12]
  Percent AlPI Eluted by Fraction, 1M NaCl: 0%
  Percent AlPI Eluted by Fraction, 2% Acetic Acid: 100%
  Percent AlPI Eluted by Fraction, Flowthrough: 0%
[13]
  Percent AlPI Eluted by Fraction, 1M NaCl: 0%
  Percent AlPI Eluted by Fraction, 2% Acetic Acid: 100%
  Percent AlPI Eluted by Fraction, Flowthrough: 0%
[14]
  Percent AlPI Eluted by Fraction, 1M NaCl: 0%
  Percent AlPI Eluted by Fraction, 2% Acetic Acid: 93%
  Percent AlPI Eluted by Fraction, Flowthrough: 7%

— patent US5985836A, “Alpha-1 proteinase inhibitor binding peptides” (Bayer Corporation, priority 1998, dated 1999)
